From paper PMC9299187
Read-outs that look alike come from different tables or passages of the source. Each block holds one molecule with its values, some of them ahead of it.

How the values were obtained:
[1] = target: Chimera‐Long (human DHFR‐TYMS bifunctional chimeric enzyme with 20 amino acid linker) (human); test: SEC; Superdex 200 10/300, 0.1 M K-phosphate pH 7.5, calibrated with protein standards; IMAC fractions of the Chimera constructs
[2] = target: Chimera‐Short (human DHFR‐TYMS bifunctional chimeric enzyme with 10 amino acid linker) (human); test: as above
[3] = target: Chimera‐Long (human DHFR‐TYMS bifunctional chimeric enzyme with 20 amino acid linker) (human); test: SPR; Chimera-Long amine-coupled on a COOH2 chip (735 RU on Ch1, 175 RU on Ch3), SHMT1 as analyte 2.66-85 uM, 25 °C, 10 mM Hepes pH 7.4, 150 mM NaCl, 0.005% Tween-20; 1 : 1 bimolecular interaction model
[4] = target: Chimera‐Long (human DHFR‐TYMS bifunctional chimeric enzyme with 20 amino acid linker) (human); test: BLI; Chimera held by mouse anti-DHFR on a Protein-A biosensor, SHMT1 as analyte 1-30 uM, kinetic titration series, kinetic buffer, 25 °C; two-exponential fit, heterogeneous binding model with two binding events
[5] = target: Chimera‐Long (human DHFR‐TYMS bifunctional chimeric enzyme with 20 amino acid linker) (human); test: SPR; Chimera-Long amine-coupled on a COOH2 chip (735 RU on Ch1, 175 RU on Ch3), SHMT1 as analyte 2.66-85 uM, 25 °C, 10 mM Hepes pH 7.4, 150 mM NaCl, 0.005% Tween-20; 1 : 1 bimolecular interaction model; remark: listed apart in the source

stoichiometry N [1]: 2
Molecule: Chimera‐Long (human DHFR‐TYMS bifunctional chimeric enzyme with 20 amino acid linker)

stoichiometry N [2]: 2
Molecule: Chimera‐Short (human DHFR‐TYMS bifunctional chimeric enzyme with 10 amino acid linker)

Kd [3]: 2.5 µM
koff [3]: 0.0025 s⁻¹
kon [3]: 470 M⁻¹ s⁻¹
KD, binding 1 [4]: 16.4 µM
KD, binding 2 [4]: 13.5 µM
koff, binding 1 [4]: 0.2 s⁻¹
koff, binding 2 [4]: 0.02 s⁻¹
kon, binding 1 [4]: 14000 M⁻¹ s⁻¹
kon, binding 2 [4]: 1600 M⁻¹ s⁻¹
Kd [5]: 2.9 µM
B1: serine hydroxymethyltransferase (SHMT1), purified recombinant, tetrameric (enzyme)
chain: DADLWSSHDKMLAQPLKDSDVEVYNIIKKESNRQRVGLELIASENFASRAVLEALGSCLNNKYSEGYPGQRYYGGTEFIDELETLCQKRALQAYKLDPQCWGVNVQPYSGSPANFAVYTALVEPHGRIMGLDLPDGGHLTHGFMTDKKKISATSIFFESMPYKVNPDTGYINYDQLEENARLFHPKLIIAGTSCYSRNLEYARLRKIADENGAYLMADMAHISGLVAAGVVPSPFEHCHVVTTTTHKTLRGCRAGMIFYRKGVKSVDPKTGKEILYNLESLINSAVFPGLQGGPHNHAIAGVAVALKQAMTLEFKVYQHQVVANCRALSEALTELGYKIVTGGSDNHLILVDLRSKGTDGGRAEKVLEACSIACNKNTCPGDRSALRPSGLRLGTPALTSRGLLEKDFQKVAHFIHRGIELTLQIQSDTGVRATLKEFKERLAGDKYQAAVQALREEVESFASLFPLPGL
